{"source": "the supplement of paper PMC7877785", "assay": "self-splicing fitness, log relative to wild type (ln ratio); higher = more splicing; Tetrahymena group I intron in knt gene, E. coli kanamycin selection, DiMSum; sequences stand for … in CUCUCU…GGAGGGAAAAGUUAUCAGGCAUGCACCUGGUAGCUAGUCUUUAAACCAAUAGAUUGCAUCGGUUUAAAAGGCAAGACCGUCAAAUUGCGGGAAAGGGGUCAACAGCCGUUCAGUACCAAGUCUCAGGGGAAACUUUGAGAUGGCCUUGCAAAGGGUAUGGUAAUAAGCUGACGGACAUGGUCCUAACCACGCAGCCAAGUCCUAAGUCAACAGAUCUUCUGUUGAUAUGGAUGCAGUUCACAGACUAAAUGUCGGUCGGGGAAGAUGUAUUCUUCUCAUAAGAUAUAGUCGGACCUCUCCUUAAUGGGAGCUAGCGGAUGAAGUGAUGCAACACUGGAGCCGCUGGGAACUAAUUUGUAUGCGAAAGUAUAUUGAUUAGUUUUGGAGUACUCGUGGUCG", "procedure,_shortened": "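Pooled colonies went to amplicon sequencing on an Illumina HiSeq 2500 after six replicate transformations. The plates were LB agar with 100 μg/mL carbenicillin, 50 μM IPTG and 0.2% rhamnose, with or without 25 μg/mL kanamycin, incubated overnight at 37°C or 30°C. The E. coli BL21(DE3) library had all eight P1ex-region intron nucleotides randomised, the intron placed in the knt kanamycin-resistance gene on pET-22b(+). DiMSum fitness is the error-weighted combination of replicate fold changes, kanamycin against none, normalised to wild type.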", "note": "± gives the uncertainty stated by the source."}
{"sequence": "AACCAGCAAUAUUACGCAUU", "values": [{"measurement": "self-splicing fitness (ln)", "setting": "30 °C", "value": "-1.58 ± 0.068"}, {"measurement": "self-splicing fitness (ln)", "setting": "37 °C", "value": "0.096 ± 0.086"}]}
{"sequence": "ACACAGCAAUAUUACGCACG", "values": [{"measurement": "self-splicing fitness (ln)", "setting": "30 °C", "value": "-0.797 ± 0.093"}, {"measurement": "self-splicing fitness (ln)", "setting": "37 °C", "value": "-0.607 ± 0.12"}]}
{"sequence": "UGUAAGCAAUAUUACGGAUC", "values": [{"measurement": "self-splicing fitness (ln)", "setting": "30 °C", "value": "-1.45 ± 0.18"}, {"measurement": "self-splicing fitness (ln)", "setting": "37 °C", "value": "-0.457 ± 0.36"}]}
{"sequence": "UGGGAGCAAUAUUACGGGGC", "values": [{"measurement": "self-splicing fitness (ln)", "setting": "30 °C", "value": "-2.62 ± 0.48"}, {"measurement": "self-splicing fitness (ln)", "setting": "37 °C", "value": "-2.07 ± 0.34"}]}
{"sequence": "ACGAAGCAAUAUUACGCUCC", "values": [{"measurement": "self-splicing fitness (ln)", "setting": "30 °C", "value": "-2.06 ± 0.42"}, {"measurement": "self-splicing fitness (ln)", "setting": "37 °C", "value": "-0.416 ± 0.41"}]}
{"sequence": "UAUAAGCAAUAUUACGUGAG", "values": [{"measurement": "self-splicing fitness (ln)", "setting": "30 °C", "value": "-1.56 ± 0.1"}, {"measurement": "self-splicing fitness (ln)", "setting": "37 °C", "value": "-1.12 ± 0.14"}]}
{"sequence": "UAAAAGCAAUAUUACGCAAG", "values": [{"measurement": "self-splicing fitness (ln)", "setting": "30 °C", "value": "-1.48 ± 0.06"}, {"measurement": "self-splicing fitness (ln)", "setting": "37 °C", "value": "-0.639 ± 0.073"}]}
{"sequence": "UACCAGCAAUAUUACGGAUG", "values": [{"measurement": "self-splicing fitness (ln)", "setting": "30 °C", "value": "-0.756 ± 0.055"}, {"measurement": "self-splicing fitness (ln)", "setting": "37 °C", "value": "0.494 ± 0.085"}]}
{"sequence": "CUUUAGCAAUAUUACGGAUC", "values": [{"measurement": "self-splicing fitness (ln)", "setting": "30 °C", "value": "-3.81 ± 0.35"}, {"measurement": "self-splicing fitness (ln)", "setting": "37 °C", "value": "-1.53 ± 0.18"}]}
{"sequence": "GCUUAGCAAUAUUACGUGGC", "values": [{"measurement": "self-splicing fitness (ln)", "setting": "30 °C", "value": "-3.12 ± 0.22"}, {"measurement": "self-splicing fitness (ln)", "setting": "37 °C", "value": "-1.44 ± 0.4"}]}
{"sequence": "CCAGAGCAAUAUUACGUGGU", "values": [{"measurement": "self-splicing fitness (ln)", "setting": "30 °C", "value": "-2.75 ± 0.12"}, {"measurement": "self-splicing fitness (ln)", "setting": "37 °C", "value": "-2.96 ± 0.21"}]}
{"sequence": "AAAUAGCAAUAUUACGGCUU", "values": [{"measurement": "self-splicing fitness (ln)", "setting": "30 °C", "value": "0.203 ± 0.1"}, {"measurement": "self-splicing fitness (ln)", "setting": "37 °C", "value": "0.139 ± 0.13"}]}
{"sequence": "AACCAGCAAUAUUACGUCUU", "values": [{"measurement": "self-splicing fitness (ln)", "setting": "30 °C", "value": "0.0745 ± 0.044"}, {"measurement": "self-splicing fitness (ln)", "setting": "37 °C", "value": "0.393 ± 0.063"}]}
{"sequence": "UCACAGCAAUAUUACGUGGA", "values": [{"measurement": "self-splicing fitness (ln)", "setting": "30 °C", "value": "-2.51 ± 0.095"}, {"measurement": "self-splicing fitness (ln)", "setting": "37 °C", "value": "-2.36 ± 0.1"}]}
{"sequence": "CAUUAGCAAUAUUACGUGCC", "values": [{"measurement": "self-splicing fitness (ln)", "setting": "30 °C", "value": "-2.77 ± 0.29"}, {"measurement": "self-splicing fitness (ln)", "setting": "37 °C", "value": "-2.26 ± 0.45"}]}
{"sequence": "GUAGAGCAAUAUUACGGGCU", "values": [{"measurement": "self-splicing fitness (ln)", "setting": "30 °C", "value": "-2.37 ± 0.3"}, {"measurement": "self-splicing fitness (ln)", "setting": "37 °C", "value": "-1.89 ± 0.41"}]}
{"sequence": "AAGCAGCAAUAUUACGACCG", "values": [{"measurement": "self-splicing fitness (ln)", "setting": "30 °C", "value": "-1.19 ± 0.099"}, {"measurement": "self-splicing fitness (ln)", "setting": "37 °C", "value": "-0.552 ± 0.15"}]}
{"sequence": "UCCGAGCAAUAUUACGGAUU", "values": [{"measurement": "self-splicing fitness (ln)", "setting": "30 °C", "value": "-3.52 ± 0.29"}, {"measurement": "self-splicing fitness (ln)", "setting": "37 °C", "value": "-2.45 ± 0.26"}]}
{"sequence": "AACAAGCAAUAUUACGGCAG", "values": [{"measurement": "self-splicing fitness (ln)", "setting": "30 °C", "value": "-1.53 ± 0.11"}, {"measurement": "self-splicing fitness (ln)", "setting": "37 °C", "value": "-1.4 ± 0.13"}]}
{"sequence": "UAUCAGCAAUAUUACGCCUU", "values": [{"measurement": "self-splicing fitness (ln)", "setting": "30 °C", "value": "-0.446 ± 0.24"}, {"measurement": "self-splicing fitness (ln)", "setting": "37 °C", "value": "-0.723 ± 0.23"}]}
{"sequence": "CAGUAGCAAUAUUACGUGCC", "values": [{"measurement": "self-splicing fitness (ln)", "setting": "30 °C", "value": "-3.68 ± 0.35"}, {"measurement": "self-splicing fitness (ln)", "setting": "37 °C", "value": "-1.93 ± 0.27"}]}
{"sequence": "GCACAGCAAUAUUACGCUCU", "values": [{"measurement": "self-splicing fitness (ln)", "setting": "30 °C", "value": "-0.938 ± 0.091"}, {"measurement": "self-splicing fitness (ln)", "setting": "37 °C", "value": "-0.131 ± 0.1"}]}
{"sequence": "UUCUAGCAAUAUUACGCUGU", "values": [{"measurement": "self-splicing fitness (ln)", "setting": "30 °C", "value": "-2.17 ± 0.17"}, {"measurement": "self-splicing fitness (ln)", "setting": "37 °C", "value": "-1.63 ± 0.2"}]}
{"sequence": "AAAUAGCAAUAUUACGGCAC", "values": [{"measurement": "self-splicing fitness (ln)", "setting": "30 °C", "value": "-0.691 ± 0.1"}, {"measurement": "self-splicing fitness (ln)", "setting": "37 °C", "value": "0.0337 ± 0.12"}]}
{"sequence": "UGUAAGCAAUAUUACGCCUG", "values": [{"measurement": "self-splicing fitness (ln)", "setting": "30 °C", "value": "0.084 ± 0.088"}, {"measurement": "self-splicing fitness (ln)", "setting": "37 °C", "value": "-0.11 ± 0.1"}]}
{"sequence": "CCUCAGCAAUAUUACGGCAU", "values": [{"measurement": "self-splicing fitness (ln)", "setting": "30 °C", "value": "-3.12 ± 0.13"}, {"measurement": "self-splicing fitness (ln)", "setting": "37 °C", "value": "-2.42 ± 0.18"}]}
{"sequence": "AUUCAGCAAUAUUACGGUAA", "values": [{"measurement": "self-splicing fitness (ln)", "setting": "30 °C", "value": "-0.935 ± 0.086"}, {"measurement": "self-splicing fitness (ln)", "setting": "37 °C", "value": "-0.659 ± 0.078"}]}
{"sequence": "CAAUAGCAAUAUUACGCCGC", "values": [{"measurement": "self-splicing fitness (ln)", "setting": "30 °C", "value": "-2.12 ± 0.22"}, {"measurement": "self-splicing fitness (ln)", "setting": "37 °C", "value": "-2.72 ± 0.4"}]}
{"sequence": "GGUUAGCAAUAUUACGGCAC", "values": [{"measurement": "self-splicing fitness (ln)", "setting": "30 °C", "value": "-0.473 ± 0.15"}, {"measurement": "self-splicing fitness (ln)", "setting": "37 °C", "value": "-0.251 ± 0.18"}]}
{"sequence": "CACGAGCAAUAUUACGUUCG", "values": [{"measurement": "self-splicing fitness (ln)", "setting": "30 °C", "value": "-4.18 ± 0.29"}, {"measurement": "self-splicing fitness (ln)", "setting": "37 °C", "value": "-2.75 ± 0.21"}]}
{"sequence": "UAGCAGCAAUAUUACGCCCG", "values": [{"measurement": "self-splicing fitness (ln)", "setting": "30 °C", "value": "-0.432 ± 0.18"}, {"measurement": "self-splicing fitness (ln)", "setting": "37 °C", "value": "-0.57 ± 0.21"}]}
{"sequence": "GCGUAGCAAUAUUACGGGAG", "values": [{"measurement": "self-splicing fitness (ln)", "setting": "37 °C", "value": "-2.28 ± 0.35"}]}
{"sequence": "UGCAAGCAAUAUUACGGCGA", "values": [{"measurement": "self-splicing fitness (ln)", "setting": "30 °C", "value": "-0.0647 ± 0.094"}, {"measurement": "self-splicing fitness (ln)", "setting": "37 °C", "value": "-0.21 ± 0.11"}]}
{"sequence": "UACCAGCAAUAUUACGUUUG", "values": [{"measurement": "self-splicing fitness (ln)", "setting": "30 °C", "value": "-3.36 ± 0.12"}, {"measurement": "self-splicing fitness (ln)", "setting": "37 °C", "value": "-2.43 ± 0.13"}]}
{"sequence": "GUGAAGCAAUAUUACGUGGG", "values": [{"measurement": "self-splicing fitness (ln)", "setting": "30 °C", "value": "-3.96 ± 0.2"}, {"measurement": "self-splicing fitness (ln)", "setting": "37 °C", "value": "-2.13 ± 0.15"}]}
{"sequence": "GGCUAGCAAUAUUACGCAGC", "values": [{"measurement": "self-splicing fitness (ln)", "setting": "37 °C", "value": "-2.29 ± 0.39"}]}
{"sequence": "AUUCAGCAAUAUUACGGGUC", "values": [{"measurement": "self-splicing fitness (ln)", "setting": "30 °C", "value": "-4.41 ± 0.46"}, {"measurement": "self-splicing fitness (ln)", "setting": "37 °C", "value": "-2.94 ± 0.24"}]}
{"sequence": "CGACAGCAAUAUUACGCUUA", "values": [{"measurement": "self-splicing fitness (ln)", "setting": "30 °C", "value": "-2.2 ± 0.14"}, {"measurement": "self-splicing fitness (ln)", "setting": "37 °C", "value": "-1.78 ± 0.12"}]}
